Molecular target: T1, full-length GST-SUUR (Drosophila, UniProt Q9VTE2 1-962)
T1 sequence (looked up): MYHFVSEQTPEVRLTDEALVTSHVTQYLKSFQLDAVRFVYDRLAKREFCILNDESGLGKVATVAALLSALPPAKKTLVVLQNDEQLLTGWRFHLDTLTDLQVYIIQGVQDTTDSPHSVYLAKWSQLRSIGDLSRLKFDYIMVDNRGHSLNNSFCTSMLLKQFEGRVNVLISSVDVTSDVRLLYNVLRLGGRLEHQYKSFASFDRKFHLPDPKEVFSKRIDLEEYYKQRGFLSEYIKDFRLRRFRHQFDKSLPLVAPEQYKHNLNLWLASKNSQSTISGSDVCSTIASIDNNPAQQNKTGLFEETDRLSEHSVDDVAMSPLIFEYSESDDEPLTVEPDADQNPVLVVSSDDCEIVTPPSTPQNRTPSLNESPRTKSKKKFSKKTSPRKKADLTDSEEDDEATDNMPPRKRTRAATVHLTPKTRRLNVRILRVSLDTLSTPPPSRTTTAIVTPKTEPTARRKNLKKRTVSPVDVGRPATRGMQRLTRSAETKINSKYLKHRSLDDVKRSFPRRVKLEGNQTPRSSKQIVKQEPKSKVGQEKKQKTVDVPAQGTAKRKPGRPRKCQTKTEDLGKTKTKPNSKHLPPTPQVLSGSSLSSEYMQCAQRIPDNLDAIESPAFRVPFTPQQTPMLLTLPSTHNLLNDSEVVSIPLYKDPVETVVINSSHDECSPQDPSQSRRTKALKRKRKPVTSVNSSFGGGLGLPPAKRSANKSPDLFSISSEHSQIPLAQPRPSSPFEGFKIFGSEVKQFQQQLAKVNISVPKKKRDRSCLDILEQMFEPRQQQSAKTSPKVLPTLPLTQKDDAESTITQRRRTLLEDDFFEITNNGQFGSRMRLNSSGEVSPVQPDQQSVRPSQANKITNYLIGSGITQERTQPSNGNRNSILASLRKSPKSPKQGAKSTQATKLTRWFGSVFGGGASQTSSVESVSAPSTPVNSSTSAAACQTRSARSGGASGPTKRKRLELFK
Test: pull-down

B1: recombinant untagged full-length H1 (natural protein, Drosophila, UniProt P02255 1-256, looked up)
chain: MSDSAVATSASPVAAPPATVEKKVVQKKASGSAGTKAKKASATPSHPPTQQMVDASIKNLKERGGSSLLAIKKYITATYKCDAQKLAPFIKKYLKSAVVNGKLIQTKGKGASGSFKLSASAKKEKDPKAKSKVLSAEKKVQSKKVASKKIGVSSKKTAVGAADKKPKAKKAVATKKTAENKKTEKAKAKDAKKTGIIKSKPAATKAKVTAAKPKAVVAKASKAKPAVSAKPKKTVKKASVSATAKKPKAKTTAAKK
  binding result: binds
